Experimental findings from US20220135687A1 are described below.

The target in experiment [1] is cynomolgus PD-L1 overexpressing stable cell line (cynomolgus) (UniProt G7PSE7). Nature of the experiment: FACS, cynomolgus PD-L1 cell line.
Experiment [2] deals with cynomolgus PD-L1 Fc-fusion protein (cynomolgus) (UniProt G7PSE7). Nature of the experiment: SPR, cyno PD-L1-Fc immobilised, antibody analyte. In general terms: SPR reads the build-up and loss of mass on a sensor chip optically.
Chain of cynomolgus PD-L1 Fc-fusion protein (cynomolgus) (G7PSE7 entry or part of it limits assumed): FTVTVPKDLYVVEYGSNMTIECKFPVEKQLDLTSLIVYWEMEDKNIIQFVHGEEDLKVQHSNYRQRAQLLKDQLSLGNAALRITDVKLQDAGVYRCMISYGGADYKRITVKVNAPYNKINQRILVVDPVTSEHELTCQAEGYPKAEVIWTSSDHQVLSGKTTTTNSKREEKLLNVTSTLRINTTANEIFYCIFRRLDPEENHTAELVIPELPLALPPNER

Chain of Durvalumab (antibody) (VH): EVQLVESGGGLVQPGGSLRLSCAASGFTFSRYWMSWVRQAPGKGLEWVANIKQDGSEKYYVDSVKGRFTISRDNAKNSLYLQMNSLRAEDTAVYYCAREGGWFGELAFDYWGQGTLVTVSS
Chain of Durvalumab (antibody) (VL): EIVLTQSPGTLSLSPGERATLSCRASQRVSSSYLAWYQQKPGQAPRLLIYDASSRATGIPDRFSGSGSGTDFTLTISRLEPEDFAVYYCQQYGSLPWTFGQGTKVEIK
Chain of cynomolgus PD-L1 overexpressing stable cell line (cynomolgus) (G7PSE7 entry or part of it limits assumed): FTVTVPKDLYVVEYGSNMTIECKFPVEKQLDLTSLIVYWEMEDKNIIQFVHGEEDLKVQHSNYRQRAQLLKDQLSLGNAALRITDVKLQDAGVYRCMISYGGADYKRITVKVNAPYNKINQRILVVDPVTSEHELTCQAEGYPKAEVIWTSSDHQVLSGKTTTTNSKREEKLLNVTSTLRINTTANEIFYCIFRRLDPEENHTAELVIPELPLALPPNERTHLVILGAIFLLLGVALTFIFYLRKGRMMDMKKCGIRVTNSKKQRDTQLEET

As a reminder, the EC50 is the concentration at which the effect is half-maximal. A high value points to a need for much substance. For orientation: Kd means the constant that tells how readily two partners part at equilibrium. Read a low Kd as tighter binding. Turning to Durvalumab (antibody), in experiment [1], the EC50 was 3.07 nM and the Top (best-fit value) was 8220. Also, the Kd in experiment [2] was 1.1 nM.
